We go through one molecule from paper PMC2211816.

For this data set, the target named is GST-KLF2 (UniProt Q60843 1-354). In words: EMSA.
Sequence of GST-KLF2 (Q60843 whole entry): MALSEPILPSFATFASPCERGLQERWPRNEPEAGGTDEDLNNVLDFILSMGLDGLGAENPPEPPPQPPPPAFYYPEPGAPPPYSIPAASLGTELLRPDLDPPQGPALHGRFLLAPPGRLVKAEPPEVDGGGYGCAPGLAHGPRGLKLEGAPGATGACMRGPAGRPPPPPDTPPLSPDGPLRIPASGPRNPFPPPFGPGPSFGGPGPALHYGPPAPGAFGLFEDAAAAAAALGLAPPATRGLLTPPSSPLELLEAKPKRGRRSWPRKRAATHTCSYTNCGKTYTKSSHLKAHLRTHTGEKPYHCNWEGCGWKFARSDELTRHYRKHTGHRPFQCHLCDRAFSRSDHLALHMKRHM

B1: eNOS promoter KLF site (-644 to -652) probe (dsDNA)
DNA 1: GTCATGGGGGTGTGGGGGTTCCAGGAAAT
DNA 2: ATTTCCTGGAACCCCCACACCCCCATGAC
B1: the binding result is recorded as “binds”.
